Source: patent US20100055095A1 (Genentech, published 2010)

Columns and labels:
Assay in all cases: co-immunoprecipitation from transfected Cos 7 cells on HA beads, western blot with anti-HA and anti-p110α
[1] = biological target: T1, p110α E545K (human, UniProt P42336 1-1068)
T1 construct: Known hot-spot mutant, constitutively active p110α; also called p110alpha E545K
Text: (§1) Proteins were immunoprecipitated using HA beads, separated by SDS-PAGE, transferred to nitrocellulose, and detected using anti-HA and anti-p110α antibodies. […] In the header row of Table 2, the terms “p110alpha E545K” and “p110alpha H1047R” refer to two known mutational “hot spots” in p110α which result in constitutively active p110α.

[2] = biological target: T2, p110α, wild-type (protein encoded by PIK3CA, catalytic subunit of PI3K) (human, UniProt P42336 1-1068)
T2 construct: also called p110alpha WT
T2 sequence (P42336 whole entry): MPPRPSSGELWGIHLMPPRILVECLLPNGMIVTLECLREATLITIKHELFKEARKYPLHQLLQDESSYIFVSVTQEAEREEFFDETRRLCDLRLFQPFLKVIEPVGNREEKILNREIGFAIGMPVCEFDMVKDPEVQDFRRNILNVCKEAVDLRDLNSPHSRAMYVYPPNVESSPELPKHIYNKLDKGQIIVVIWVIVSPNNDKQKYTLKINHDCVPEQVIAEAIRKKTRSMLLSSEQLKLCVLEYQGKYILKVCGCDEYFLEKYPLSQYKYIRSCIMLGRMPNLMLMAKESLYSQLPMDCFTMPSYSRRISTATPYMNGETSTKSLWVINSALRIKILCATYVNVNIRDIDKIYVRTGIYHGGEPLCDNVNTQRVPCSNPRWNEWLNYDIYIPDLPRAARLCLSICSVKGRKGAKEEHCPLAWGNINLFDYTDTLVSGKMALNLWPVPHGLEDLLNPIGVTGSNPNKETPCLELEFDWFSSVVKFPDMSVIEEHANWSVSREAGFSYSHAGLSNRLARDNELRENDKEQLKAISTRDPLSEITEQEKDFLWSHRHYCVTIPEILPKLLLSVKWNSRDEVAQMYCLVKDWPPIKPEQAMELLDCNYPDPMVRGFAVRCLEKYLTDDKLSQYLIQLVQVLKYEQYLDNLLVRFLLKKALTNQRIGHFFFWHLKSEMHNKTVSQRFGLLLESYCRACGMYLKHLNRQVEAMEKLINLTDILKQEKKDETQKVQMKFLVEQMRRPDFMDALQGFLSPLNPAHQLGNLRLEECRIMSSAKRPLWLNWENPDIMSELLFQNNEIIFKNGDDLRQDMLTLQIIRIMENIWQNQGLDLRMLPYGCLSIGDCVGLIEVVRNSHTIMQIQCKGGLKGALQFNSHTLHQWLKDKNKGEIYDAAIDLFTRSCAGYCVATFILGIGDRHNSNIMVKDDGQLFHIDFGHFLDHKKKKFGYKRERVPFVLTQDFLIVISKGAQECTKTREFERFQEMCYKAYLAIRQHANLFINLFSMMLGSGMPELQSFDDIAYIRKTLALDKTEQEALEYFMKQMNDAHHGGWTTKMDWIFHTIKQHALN
Text: as §1

[3] = biological target: T3, p110α H1047R (human, UniProt P42336 1-1068)
T3 construct: Known hot-spot mutant, constitutively active p110α; also called p110alpha H1047R
T3 sequence (P42336 whole entry H1047R): as the sequence (P42336 whole entry) above, with H1047R counted along it
Text: as §1

Measured: binding result

T1 sequence (P42336 whole entry E545K): as the sequence (P42336 whole entry) above, with E545K counted along it

B1: N-terminally HA-tagged p85α R162stop (other)
chain: MSAEGYQYRALYDYKKEREEDIDLHLGDILTVNKGSLVALGFSDGQEARPEEIGWLNGYNETTGERGDFPGTYVEYIGRKKISPPTPKPRPPRPLPVAPGSSKTEADVEQQALTLPDLAEQFAPPDIAPPLLIKLVEAIEKKGLECSTLYRTQSSSNLAEL
notes: Stop codon at R162; also called p85 R162stop; 162R>O; not shown: N-terminal HA tag
no binding: all assays above
